Several values for one entry are separate records, joined by “and”; a condition that tells them apart may be missing. Identical values can stand only once.
Tests used:
[1] = target: human CD30 expressed on cells (L540, L428, L1236, Karpas cell lines; activated human peripheral blood cells) (human) (UniProt P28908); assay: flow cytometry on CD30-expressing L540 cells, FITC anti-human secondary antibody
[2] = target: human FcRgammaIIIa, Phe^158 allotype (human) (UniProt P08637); assay: SPR (Biacore): mAb captured on a surface coated with recombinant human CD30, FcRγIIIa Phe158 (CD16-Phe) flowed over, equilibrium signal fitted to a one-site model; Binding Constants (nM)
Sequence of human FcRgammaIIIa, Phe^158 allotype (human) (P08637 17-208 limits assumed): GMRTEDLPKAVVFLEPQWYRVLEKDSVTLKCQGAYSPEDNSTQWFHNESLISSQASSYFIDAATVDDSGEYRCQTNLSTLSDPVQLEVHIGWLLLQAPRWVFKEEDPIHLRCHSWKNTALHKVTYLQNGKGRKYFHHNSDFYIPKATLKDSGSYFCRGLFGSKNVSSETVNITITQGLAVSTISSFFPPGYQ

[3] = target: human CD30 expressed on cells (L540, L428, L1236, Karpas cell lines; activated human peripheral blood cells) (human) (UniProt P28908); assay: Scatchard analysis, 125I-labelled antibody on L540 cells
[4] = target: human FcRgammaIIIa, Val^158 allotype (human) (UniProt P08637); assay: SPR (Biacore): mAb captured on a surface coated with recombinant human CD30, FcRγIIIa Val158 (CD16-Val) flowed over, equilibrium signal fitted to a one-site model; Binding Constants (nM)
Sequence of human FcRgammaIIIa, Val^158 allotype (human) (P08637 17-208 F176V limits assumed): as the sequence (P08637 17-208 limits assumed) above, with F160V counted along it

[5] = target: human CD30 expressed on cells (L540, L428, L1236, Karpas cell lines; activated human peripheral blood cells) (human) (UniProt P28908); assay: cell-based or functional assay
[6] = target: human CD30 expressed on cells (L540, L428, L1236, Karpas cell lines; activated human peripheral blood cells) (human) (UniProt P28908); assay: Scatchard analysis, 125I-labelled antibody on PHA/Con A/IL-2 activated human peripheral blood cells
[7] = target: human CD30 expressed on cells (L540, L428, L1236, Karpas cell lines; activated human peripheral blood cells) (human) (UniProt P28908); assay: Scatchard analysis (Bmax), 125I-labelled antibody on L540 cells
[8] = target: human CD30 expressed on cells (L540, L428, L1236, Karpas cell lines; activated human peripheral blood cells) (human) (UniProt P28908); assay: Scatchard analysis (Bmax), 125I-labelled antibody on activated human peripheral blood cells
[9] = target: cynomolgus CD30 on PHA, Con A and rIL-2 activated cynomolgus peripheral blood mononuclear cells (cynomolgus monkey); assay: Scatchard analysis, 125I-labelled antibody on PHA/Con A/IL-2 activated cynomolgus peripheral blood mononuclear cells
[10] = target: cynomolgus CD30 on PHA, Con A and rIL-2 activated cynomolgus peripheral blood mononuclear cells (cynomolgus monkey); assay: Scatchard analysis (Bmax), 125I-labelled antibody on activated cynomolgus peripheral blood mononuclear cells
[11] = target: T1, human CD30 expressed on cells (L540, L428, L1236, Karpas cell lines; activated human peripheral blood cells) (human, UniProt P28908 19-595); assay: cell-based or functional assay
T1 sequence (looked up): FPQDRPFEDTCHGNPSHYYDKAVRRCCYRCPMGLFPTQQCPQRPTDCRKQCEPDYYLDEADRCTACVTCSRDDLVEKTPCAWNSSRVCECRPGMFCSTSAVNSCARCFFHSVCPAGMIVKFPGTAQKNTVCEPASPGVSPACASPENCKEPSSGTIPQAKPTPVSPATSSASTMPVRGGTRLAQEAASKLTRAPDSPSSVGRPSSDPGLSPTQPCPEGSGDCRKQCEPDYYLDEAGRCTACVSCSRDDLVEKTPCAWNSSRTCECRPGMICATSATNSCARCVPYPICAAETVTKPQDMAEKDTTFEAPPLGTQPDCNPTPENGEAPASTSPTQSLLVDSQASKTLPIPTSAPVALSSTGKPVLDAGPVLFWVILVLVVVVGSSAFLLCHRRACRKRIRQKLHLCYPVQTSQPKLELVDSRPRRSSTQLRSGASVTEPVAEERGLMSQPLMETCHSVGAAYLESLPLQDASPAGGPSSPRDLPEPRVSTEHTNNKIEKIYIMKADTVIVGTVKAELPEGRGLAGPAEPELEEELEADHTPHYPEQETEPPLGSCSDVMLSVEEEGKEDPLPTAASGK

[12] = target: T1, human CD30 expressed on cells (L540, …); assay: flow cytometry on CD30-expressing L540 cells, FITC anti-human secondary antibody
[13] = target: T2, cynomolgus CD30 on PHA, Con A and rIL-2 activated cynomolgus peripheral blood mononuclear cells (cynomolgus monkey, UniProt A0A2K5VW07 29-603); assay: Scatchard analysis, 125I-labelled antibody on PHA/Con A/IL-2 activated cynomolgus peripheral blood mononuclear cells
T2 construct: whole, on cells
T2 sequence: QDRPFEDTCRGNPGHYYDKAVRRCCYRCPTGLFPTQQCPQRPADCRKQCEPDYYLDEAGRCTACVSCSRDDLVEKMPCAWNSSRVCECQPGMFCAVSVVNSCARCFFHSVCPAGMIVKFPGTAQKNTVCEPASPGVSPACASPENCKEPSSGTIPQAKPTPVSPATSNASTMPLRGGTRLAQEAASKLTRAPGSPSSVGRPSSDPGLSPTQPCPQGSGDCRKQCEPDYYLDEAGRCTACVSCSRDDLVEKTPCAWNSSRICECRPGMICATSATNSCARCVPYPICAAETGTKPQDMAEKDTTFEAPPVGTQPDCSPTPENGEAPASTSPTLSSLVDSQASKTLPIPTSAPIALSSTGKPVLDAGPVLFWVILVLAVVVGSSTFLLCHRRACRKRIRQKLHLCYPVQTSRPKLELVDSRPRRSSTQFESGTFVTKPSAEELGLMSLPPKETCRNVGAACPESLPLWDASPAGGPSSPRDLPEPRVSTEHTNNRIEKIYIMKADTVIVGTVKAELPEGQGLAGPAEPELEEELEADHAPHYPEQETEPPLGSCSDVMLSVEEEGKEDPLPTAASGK
Description: (§1) Human or cynomolgus peripheral blood cells were stimulated with 2 μg/ml PHA, 10 μg/ml Con A, and 50 U/ml rIL-2 and cultured in RPMI1640 media containing 10% fetal bovine serum (FBS) at 1×10⁶ cells/ml density for 3 days. On the day of the study, the cells were washed and adjusted to 2×10⁷ cells/ml in binding buffer (RPMI1640+10% FBS). […] The cells were placed on ice until the initiation of the experiment. Millipore glass fiber filter plates (MAFBNOB50) were coated with 1% nonfat dry milk in water and stored a 4° C. overnight. The plates were washed three times with 0.2 ml of binding buffer. Fifty microliters of buffer alone was added to the maximum binding wells (total binding). Twenty-five microliters of buffer alone was added to the control wells. Varying concentration of ¹²⁵I-anti-CD30 antibody was added to all wells in a volume of 25 μl. Varying concentrations of unlabeled antibody at 300-400 fold excess were added in a volume of 25 μl to control wells (non-specific binding) and 25 μl of CD30 positive L540 cells or stimulated human or cynomolgus peripheral blood cells in binding buffer were added to all wells. The plates were incubated for 2 hours at 200 RPM on a shaker at 4° C. At the completion of the incubation the Millipore plates were washed twice with 0.2 ml of cold wash buffer (RPMI1640, 10% FBS, 500 mM NaCl). The filters were removed and counted in a gamma counter. […]

[14] = target: T1, human CD30 expressed on cells (L540, …); assay: Scatchard analysis, 125I-labelled antibody on L540 cells
Description: as §1

[15] = target: T1, human CD30 expressed on cells (L540, …); assay: Scatchard analysis, 125I-labelled antibody on PHA/Con A/IL-2 activated human peripheral blood cells
Description: as §1

[16] = target: T1, human CD30 expressed on cells (L540, …); assay: cell-based or functional assay; remark: listed apart in the source

“fucosylated 5F11 human anti-CD30 monoclonal antibody produced in CHO DG44 cells” showed an EC50 [1] of 0.18 µg/mL, a Kd [2] of 1090 nM and a Kd [3] of 1.37 nM. For the same molecule, the Kd [4] was 177 nM, the % Lysis, 51Cr release ADCC, Karpas cells, 25 µg/ml antibody, target:effector 1:50 [5] was 19% and the % Lysis, 51Cr release ADCC, L428 cells, 25 µg/ml antibody, target:effector 1:50 [5] was 20%. The % Lysis, 51Cr release ADCC, L540 cells, 25 µg/ml antibody, target:effector 1:50 [5] was 42%, the % Lysis, 51Cr release ADCC, L1236 cells, 25 µg/ml antibody, target:effector 1:50 [5] was 4% and the % cell lysis, ADCC, Karpas 299 cells, cynomolgus effector cells, 10 µg/mL antibody [5] was 7% and 10%. The EC50 of ADCC, Karpas cells [5] was 0.25 µg/mL, the EC50 of ADCC, L428 cells [5] was 0.1 µg/mL and the EC50 of ADCC, L540 cells [5] was 0.042 µg/mL. It also gave an EC50 of ADCC, L540 cells, heterozygous FcRγIIIaPhe/Val^158 human effector cells [5] of 0.0589 µg/mL, an EC50 of ADCC, L540 cells, homozygous FcγIIIa Phe/Phe^158 effector cells [5] of 0.0337 µg/mL and an EC50 of ADCC, L1236 cells [5] of 1.22 µg/mL. For the same molecule, the maximal percent cell lysis, ADCC, L540 cells, heterozygous FcRγIIIaPhe/Val^158 human effector cells [5] was 31%, the maximal percent cell lysis, ADCC, L540 cells, homozygous FcγIIIa Phe/Phe^158 effector cells [5] was 15% and the Kd [6] was 1.08 nM. For the same molecule, the Receptors Per Cell (ave) (receptors per cell) [7] was 2.5e+06, the Receptors Per Cell (ave) (receptors per cell) [8] was 45700 and the Kd [9] was 0.47 nM. It also gave a Receptors Per Cell (ave) (receptors per cell) [10] of 72800.

B1: 5F11 LEX^Opt mAb (glyco-optimized 5F11 produced in Lemna minor with FucT/XylT RNAi, vector MDXA04) (antibody, V domains shown)
VH: QVQLQQWGAGLLKPSETLSLTCAVYGGSFSAYYWSWIRQPPGKGLEWIGDINHGGGTNYNPSLKSRVTISVDTSKNQFSLKLNSVTAADTAVYYCASLTAYWGQGSLVTVSS
VL: DIQMTQSPTSLSASVGDRVTITCRASQGISSWLTWYQQKPEKAPKSLIYAASSLQSGVPSRFSGSGSGTDFTLTISSLQPEDFATYYCQQYDSYPITFGQGTRLEIK
notes: N-glycans at Asn 297 are 95.8% GnGn (G0), with no fucosyl or xylosyl; also called MDXA04 derived mAb; glyco-optimized anti-CD30 mAb
B1 was tested, and the Kd [2] was 41 nM, the “EC50 of ADCC, L540 cells, FcγRIIIa Phe/Phe^158 effector cells” value [11] was 0.0199 µg/mL and the “EC50 of ADCC, L540 cells, FcγRIIIa Val/Phe^158 effector cells” value [11] was 0.0131 µg/mL. For the same molecule, the “fold increase in ADCC activity compared to 5F11 CHO” value [11] was 20 fold and the EC50 [12] was 0.196 µg/mL.

B2: defucosylated 5F11 human anti-CD30 monoclonal antibody produced in Ms704 (FUT8-/-) cells (antibody, V domains shown)
VH: QVQLQQWGAGLLKPSETLSLTCAVYGGSFSAYYWSWIRQPPGKGLEWIGDINHGGGTNYNPSLKSRVTISVDTSKNQFSLKLNSVTAADTAVYYCASLTAYWGQGSLVTVSS
VL: DIQMTQSPTSLSASVGDRVTITCRASQGISSWLTWYQQKPEKAPKSLIYAASSLQSGVPSRFSGSGSGTDFTLTISSLQPEDFATYYCQQYDSYPITFGQGTRLEIK
notes: also called defuc-5F11; defucosylated anti-CD30 antibody
B2 gave a Kd [13] of 0.83 nM, a Kd [14] of 1.93 nM and a Kd [15] of 2.66 nM. For the same molecule, the “% Lysis ratio fucosyl-:fucosyl+, ADCC, Karpas cells” value [16] was 2.63, the “% Lysis ratio fucosyl-:fucosyl+, ADCC, L428 cells” value [16] was 2.15 and the “% Lysis ratio fucosyl-:fucosyl+, ADCC, L540 cells” value [16] was 1.61. The “% Lysis ratio fucosyl-:fucosyl+, ADCC, L1236 cells” value [16] was 3.25, the “EC50 of ADCC, Karpas cells” value [16] was 0.032 µg/mL and the “EC50 of ADCC, L428 cells” value [16] was 0.009 µg/mL. For the same molecule, the “EC50 of ADCC, L540 cells” value [16] was 0.009 µg/mL, the “EC50 of ADCC, L1236 cells” value [16] was 0.045 µg/mL and the “EC50 ratio fucosyl+:fucosyl-, ADCC, Karpas cells” value [16] was 7.8. The “EC50 ratio fucosyl+:fucosyl-, ADCC, L428 cells” value [16] was 11.1, the “EC50 ratio fucosyl+:fucosyl-, ADCC, L540 cells” value [16] was 4.7 and the “EC50 ratio fucosyl+:fucosyl-, ADCC, L1236 cells” value [16] was 27.1.
